# Square brackets hold non-standard residues; d marks the D form. pGlu = O=C1CC[C@@H](C(=O)O)N1
# What was measured:
# [1] = molecular target: NT receptor NTSR1 (high affinity NTSR1 receptor) on HT29 cells (human) (UniProt P30989); assay: competition with [3H]-NT on HT29 cells expressing NTSR1
# [2] = molecular target: T1, NT receptor NTSR1 (high affinity NTSR1 receptor) on HT29 cells (human, UniProt P30989 1-418); assay: as above
# T1 construct: whole, on cells; also called neurotensin receptor type 1; NTR1
# T1 sequence (P30989 whole entry): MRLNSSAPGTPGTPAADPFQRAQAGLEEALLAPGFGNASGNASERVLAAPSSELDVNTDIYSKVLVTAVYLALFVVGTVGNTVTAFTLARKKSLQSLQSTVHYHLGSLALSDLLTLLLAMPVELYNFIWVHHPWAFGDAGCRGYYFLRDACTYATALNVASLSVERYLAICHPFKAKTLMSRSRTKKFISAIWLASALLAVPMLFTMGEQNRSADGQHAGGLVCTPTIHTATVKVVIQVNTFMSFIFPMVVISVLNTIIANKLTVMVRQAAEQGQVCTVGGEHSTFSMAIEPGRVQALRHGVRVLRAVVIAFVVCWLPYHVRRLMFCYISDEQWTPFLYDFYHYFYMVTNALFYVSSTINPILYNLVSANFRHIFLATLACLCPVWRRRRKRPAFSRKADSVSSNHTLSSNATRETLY
# NT receptor NTSR1 (high affinity NTSR1 receptor) on HT29 cells (human), sequence (P30989 whole entry): as above
IC50 [1] [nM],fold weaker binding than native NT [1] [fold],IC50 [2] [nM],Molecule
5390,> 1000,,Ac-Lys-[D-Tyr^11]NT(8-13) (Ac-KRRPD-YIL-OH) (peptide)
,,1.3,"[pGlu]KRRPYIL-OH (SMILES CC[C@H](C)[C@H](NC(=O)[C@H](Cc1ccc(O)cc1)NC(=O)[C@@H]1CCCN1C(=O)[C@H](CCCNC(=N)N)NC(=O)[C@H](CCCNC(=N)N)NC(=O)[C@H](CCCCN)NC(=O)[C@@H]1CCC(=O)N1)C(=O)N[C@@H](CC(C)C)C(=O)O, Structure printed only as drawing CHEM-US-00006; The chain is built from the name, and Mw 1056.26 fits pGlu-KRRPYIL; also called pE-Lys-NT(8-13); pGlu-NT(8-13)) [pGlu-LysNT(8-13)]"
,,1,"Ac-KRRPYIL-OH (Structure printed only as drawing CHEM-US-00004; The chain is built from the name, and Mw 987.20 fits Ac-KRRPYIL) [Ac-LysNT(8-13)]"

# From patent US20100256055A1 (ANGIOCHEM, published 2010)
